A protein production outcome set (Wang et al. 2014)

Assay: label from the status in PepcDB records

Sequence | protein production
MQRLKTVFILFIAFLFFSCSGKTNEQAFFKELSKIDLQIAEGYQAKALKSLKRLQKKAVNSTNYVSIVKRQLKLNSIPDALISLQTGIKKIPDSPELSALLTSILIDSGKPAEALPYCEKLKDTPYASLGAEASILSDIALNSFNSDFSLLKAAYDKTENQVFLKNAAIVLAAKGRLREASNLRYNIPNDVAPEHPFFWSCIVYDLGVFDSIFGDLYFSLVYADKDGGEGKTAENARLHLMLAADAAYGQGDTERARAFWQAAADRSPEASPIVFYDLALTAPDEKERVDLLIECIDLYPDFYPVIARYVREDIALRELNSQDELSAYLESKGFYSIKMEETYFTSPKMTYKPEDLLARAMKNPNFDQRFILEEFRYNQITDKTYASKARGKADMWKILEKYGKESIIREYAKWYFAQSGDFNACLSVSEIGKRYEDSFYAGINSALSGDFENAVSSFAASAQVSAYAYASTVNSAYMYYMSGKTSEAVDTYSLAASMTQDKKRQSMLHYEIASIFYERKAYDRAISVLGYALELNPKNYQAASLLKKLKEFN | failed
MGHHHHHHSHGHAAVIGWKDLAYAGVIDSGGVCENIIAIPNPGTEPLNVAAVLCEGLDVVVYKGPEISLSPTRARPLLGKLRQGTAALVMVGTKVSSPALSVDAEITDYVGIGAGSGRIRGVEMQVRAVSKTHGVRSGKVLISRP | failed
MRISCMSSFLTSDVLIAFSVTFLAGLATLLGGAIVLFFKQPSLRLLSFGLAFSAGAMVYISLTEILNKSIHSFSEVFSAKVGFAFATFAFLTGVIAILLLDRCVPNPHTMLEKTTAQQLDQTQLRRTGLLTMLAITAHNFPEGLATFFATLDSPILGAPLAVAIAIHNIPEGIAIAVPVYMATGQKSYAIWASLLSGLAEPLGAALGYFILAPYMGATMYGIIFGLIAGVMVYLAMDELLPAAKKYSQGHETVYGLVTGMAALATSLVLFQWV | failed
MSEENKIGTYQFVAEPFHVDFNGRLTMGVLGNHLLNCAGFHASDRGFGIATLNEDNYTWVLSRLAIELDEMPYQYEKFSVQTWVENVYRLFTDRNFAVIDKDGKKIGYARSVWAMINLNTRKPADLLALHGGSIVDYICDEPCPIEKPSRIKVTSNQPVATLTAKYSDIDINGHVNSIRYIEHILDLFPIELYQTKRIRRFEMAYVAESYFGDELSFFCDEVSENEFHVEVKKNGSEVVCRSKVIFE | not failed
MTKNAASKARIAYVCTECGTEYSKWQGQCTECGTWNCLSQITLGNAGSVKNPTMKHGNWTGQLDPPKITALKDVQHSEQARISTGIGEFDRVLGGGLVAGAVVLIGGDPGIGKSTLLLQALARMASNLPTLYVTGEESLAQVAGRAVRLDLPLEGLNALAETGIESILQHASSARPRLIVADSVQTLWTEALTAAPGSVSQVRESAAQLVRYAKETGTTVFLVGHVTKEGGIAGPRVLEHMVDAVLYFEGESGSRFRLLRAFKNRFGAVNELGVFAMSEKGLKEVANPSAIFLSGRNSDQPGSCVMVTREGTRPLMVEVQALVDTSPLSNPRRVTVGLEQNRLAMLLAVLHRHGNVLVGDQDVFINIVGGIRVQETAADLPVLLAVRSSLCNRALPEKTIAFGEVGLSGEIRPVPNGEERLREAATHGFKHAIVPKANAPKSAIKDMQIIAVERLDQALEASY | failed
MGLNSKAEVAKSRKNAAEAEQKDRQTREKEEQYWREAEGPKSKAVKKREEEAEKKAETAAKKLEAKRLAEQEEKELEKALKKPDKKANRVTVPVPKVTEAELIRRREEDQVALAKKAEDSKKKQTRMAGEDEYEKMVLVTNTNRDDSLIEAHTVDEALARITVSDNLPVDRHPEKRLKASFKAYEEVELPRLKSEKPGLTHTQYKDLIWKMWKKSPDNPLNQAAAAAANE | failed
MVYELVYELVYAKIYTNKRIPIREDPCMARTTRPLTHTEVQKAKATDKDLTLHDGDGLFLLVKTTGKKIWRFRYQVPGTSKRTMISLGAYPALSLADAREVRSEKLAILVKGIDPQARAGEEAEKLQIAQESIFVNVARKWFELKQSHVSADHAKDIWRSIEKDILPSIENVPIQELKARTLIQVLEPIKARGALETVRRLVQRINEIMIYAVNVGLIEANPASGIGNAFERPKKQHMPIIRPEELPKLMRTISMSNLSIPTRCLLEWQLLTLIRPAEASATAWSEIDIENKQWCIPAERMKAKRDHIVPLSEQALELLEIMRPISGNRQYVFPSRNDPRKPMNSQTANAALKRIGYSGKLVAHGLRSIASTAMNEAGFNADVIEAALAHSDKNEVRRAYNRSTYLTQRVELLGWWGEFVNRTQVI | failed
MVNFDEEVFRAYYEHKIKSFIKEELSNNLIKGNIFEFDIEKFLMHFPDACEVNDLIIERPKEIEEIILDIFKEAYVELFGEDKELEKIQIAFKNPKGCEKLIEEISAEDINKLVKFEGNILQAGKVNALLKKAVYYCNKRIKDENGGFLCKYTYTPCDGRVEIEIDDYFSEGEFIKDMLSPREVKKILENKKVWDKLVEKGKIPRCVDLKENDEVFKENLKEIKFILDEYDSIYVNIQEMEIQQPIDLMKNPEEPARSIRVFLENTPGIYAGRVNVIGRVMKREYRHNIPIYKIYIKSNYIKISESYNKIEVKDILRNEELIETLNELGRKKNIIDILSNYLISQIKGYELVKKAIFLQQIKGAFKFLPDGTPLRRDSHILLITDPGIGKSTMLRRIARLFPQNAYASVTTATGGGLTAIVTREATEIGDGWVVKPGVFVRANEGTACIDELTVDKNVMKYILEAMESQTIHVNKGGINVKLPARCAVLAACNPKRGRFDRNLTVIEQIDIPAPLLSRFDLIFPLMDKPNRKSDEEIAEHILNTHIETATKDYKILGAIDIDGITVDEKLLKYYIIYARSCAYIEENQDLYLGEFDETKLIMPYLTDKAKKMIKKYYLEMRKLGEGDNPIPITARQLEAIIRIAEMHAKARLSDKVEDVDAEVAISIIDDCLKQVAYDPETGTLDLDKIAGTPKSRRDKMDAVLNIIREIVSLRDDGLAPEEEIYEKAMAIGLSEKDVNDALEYLKKAGDIYNPRYGFWGLL | failed
MSTNEITKRLPNLTSRRALLLYSLPVLVAIGVSHSLKESSLTKTIALNLPESQVVERILDATTAEVVTPPNFEYQIQAGDNLSTIFSQLGFGYSSLMKVMETDLNYLALDTLKPGNTLRFWRNDATGELEKMELQFSIADKVVYQLNSDGGYDFTDISIPGVWRQEPLVGVIQGSFSSSANRLGLSSAEISQVVSLLKEQVNFGRDLRAGDRFEVVRRSQTINGVSTGKNEIEAIKIYNRGREITAYLHTDGQFYNAKGESLQRAFQRYPVSRSWRISSGFNPNRLHPVTGRVAP | failed
KHLSLTPELYKYLLDISLREHPALAALRKETSTMELANMQVAPEQAQFMQMLIRLTRAKKVLELGTFTGYSALAMSLALPDDGQVITCDINEGWTKHAHPYWREAKQEHKIKLRLGPALDTLHSLLNEGGEHQFDFIFIDADKTNYLNYYELALKLVTPKGLIAIDNIFWDGKVIDPNDTSGQTREIKKLNQVIKNDSRVFVSLLAIADGMFLVQPI | not failed
MSHAVANKTETEAAPNSSLKQSAAPQPANSHDAKLLNGTLARTNGLTHAASVATSSSGSYGSSSAAGSNAGSGGPTSSASLSIAAGVASSTALPLPPSSNGLQMPYERFRADDTSYVPIAQFYAGRSVFITGGTGFMGKVLVEKLLRSCPEIRNIYLLIRPKRGQEVSARLTELLNAPLFESLRQEKPKELSKVIPISGDITSEELGISEKDQNLLCRNVSVVFHSAATVKFDEKLKLSVTINMLGTKRLVELCHRMLSLDALIHVSTAYCNCDRTDVSEVIYAPPYNPDDIISLINWLPEDILDQLTPRLIGKRPNTYTFTKALAEHMLLKEAGNLPVAIVRPSIVTASLNEPFAGWVDNFNGPTGLVSALAKGMFRTMMCEKNYVADMVPVDIVINLMIAAAWRTATRKSNNLLIYNCCTGQRNPIIWSEFVKHAMTSVRKHPLEGCLWYPTGDLRMNRPMNTLNCIAKHFLPAYILDGVARIMGKKPFVVNVQNKIAKAVECLEYFATRQWRFKDDNVHALLHTLSPKDREIFVFDVRHINWDKYVERYVLGFREFLFKQRPESLPASRKRMLRLYYLHQLTKLVAVLLTWRFLMSRSKRLNDLWSSFLENALRMARLIPFL | failed
MNRYQALFQRLSAAQQGAFVPFVTIGDPNPEQSLAIMQTLIDAGADALELGMPFSDPLADGPTIQGANLRALAAKTTPDICFELIAQIRARNPETPIGLLMYANLVYARGIDDFYQRCQKAGVDSVLIADVPTNESQPFVAAAEKFGIQPIFIAPPTASDETLRAVAQLGKGYTYLLSRAGVTGAETKANMPVHALLERLQQFDAPPALLGFGISEPAQVKQAIEAGAAGAISGSAVVKIIETHLDNPAKQLTELANFTQAMKKATKI | not failed
MNVSHISAVSYYFARYIQEVLEVPVGIVVSTWGGSKIEAWMSRESIKPFSSIDLSILDNDAEVKNPTATPCVLYNGKIAPLTNFAVRGFLWYQGESNRDNADLYQSLMPAFVADLRAKWGRGELPFYFVQIAPFDYEGADGTSAARLREVQLQNMKDIPNSGMVTTMDVGHPVFIHPVDKETVGNRLAYWALAQTYGMKGFGYAPPVYKSMEIQENKIYINFYNAQRGLSPMWTSLKGFEIAGEDKVFYPAFAEIETTTARLAVSSDKVSHPVAVRYAYKNYVEASIFSIHGIPAAPFRTDNWLEHHHHHH | failed
MAGKRKSRRGFGRVRKLPSGRFQARYPGPDGVLRPADRTFATTTDADRWLMRKRIEIEEGCWLDPAEGQTTVRDWAARWLAAVSPQLKHKTQASYRSLINSLINPVLGDRELSSLRPITVTEWVGAMRTKGLSASRIRQAYRVLSQIMRSAVDNDMIPQTPCRGVRLPRMPQTEPHILTPLEASRIVKGATKPHDLLIALLAYAGLRVGEAFALRRVDVDVSGGFVLVDENLAEANGVLVFDTPKSHQKRLLRVGPSLAKRLGRHLETLPGGDDALLFTTPGGKPLRYNQWRKAYFDPAVSAAGLTDVTPHDLRASHGTWVADRYGVMTAAHRLGHSNASVTTRHYARPVAGRDDQVAEAADSWLSGSEDNDDGSAAVPA | failed
MPFHGDAQENTWPNSRASPMSLASKLPRFRWLLPAFVVLVGVVLTIVMHWDDRAGLWWKESQASQQQRDESIWLPGYRVVIDAKPLQGLEEEETSDLAYNPATRTLFTVTGKRPLLVELSLTGDVLRTIPLLGLSNPEGVAVLENGNVAVTDERRNTLTIFHVDPQTAELSTKSLAEFPLGNIGKKNKGFEGIAWDPRQQRLLLSKERDPMTLFSWKSDGGPSLSGAMTALPSDDLYMRNVSALSVDPRTGHTLVLSAESHLLLELDEKGEPVSFISLLGGFNGLDSKIPRAEGVAIDDEGTIYMVSEPNLFYVFRKKSGERLATSDADLEHHHHHH | failed
MTNIFASWGLIKLEIVRALRNRKFLFFSVIYPSALFLLIAGSADSTTKVEGTGLSLPTFFMVSMASFGALTAVLMGNSERIAKERESGWVRQLRLTTLPGRGYVLAKTASAAVISLPSILIVFVVAAAVKNVRLDAWQWLALTGTIWVGSLVFAALGVAIGYLATGDAVRPITMIVYFGLSMLGGLWMPTTTFPDWLQSIAKWLPTHAYAALGQAIELGNAPQAKDIAILAVSFVLFAGGAAWLYRKDTLKA | failed
